In patent US20200407433A1 one finds EC50 data, which are given here for three molecules.

For orientation: EC50 means the concentration giving half of the maximal effect. A higher EC50 goes with weaker potency.

Substitutions are numbered along the chain they refer to.

First the molecules themselves.
B1: murine mAb 24G7B10G2 (antibody, mouse IgG2a, V domains shown)
VH: EVQLLQSGPELMKPGTSVKISCKASGYTFTDYYMNWVKQSHGKSLEWIGDVNPNNGDTTYNQKFKGKATLTIDKSSSTAYMELRSLTSEDSAVYYCASITIVPLYFDFWGQGTTLAVSS
VL: DIVMTQSQKFMSTSVGDRVSVTCKASQNVGINVAWYQQKPGQSPKALLYSASYRYSGVPDRFTGSGSGTDFTLTISNVKSGDLAEYFCQQYNTYPYTFGGGTKLEIK
B2: murine mAb 30B8G9B11 (antibody, mouse IgG2a, V domains shown)
VH: B1 VH with L5Q, M12V, T16A, D57G, T59H, I72V, L104V, A116T
VL: B1 VL with I31P, Q37R, L48I, K79Q, G81E, E85D, F87I, T93Y
B3: murine mAb 6G5C8C4 (antibody, mouse IgG2a, V domains shown)
VH: EVQLQQSGPELVKPGASVKISCKASGYTFTDYYMNWVKQSHGKSLEWIGDINPNNGGTTYNQKFKGKATLTVDKSSTTAYMELRSLTSEDSAVYYCAVITIVPYYFDYWGQGTTLTVSS
VL: DIVMTQSQKFMSTSVGDRVSVTCKASQNVGSNVAWYQQKPGQSPKALIYSASFRYSRVPDRFSGSGSGTDFTLTISNVQSEDLADYFCQQYNSYPYTFGAGTKLELK

Primate CGRP (primate (macaque)), sequence (P06881 83-119): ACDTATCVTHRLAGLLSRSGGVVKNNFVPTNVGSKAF

The test concerns the target Primate CGRP (primate (macaque)). The test is described as follows: ELISA, primate CGRP binding. In general terms: In an ELISA, binding on a coated surface is turned into a signal by an enzyme label.
On to B1, for which the concentration for a half-maximal effect (EC50) is 0.072 nM. For B2 the value was 0.07 nM; for B3, 0.101 nM.
